# Test results as given in article PMC10687032, “Phosphorylation of USP27X by GSK3β maintains the stability and oncogenic functions of CBX2” (Cell Death & Disease, 2023).
# T1: His-Myc-CBX2 (human, UniProt Q14781 1-532)
# T1 construct: Chromobox protein homolog 2 (CBX2), human; the His-Myc construct is named only in the pull-down methods; the cloning of a His-Myc construct is not described; also called Purified Myc-CBX2
# T1 sequence (looked up): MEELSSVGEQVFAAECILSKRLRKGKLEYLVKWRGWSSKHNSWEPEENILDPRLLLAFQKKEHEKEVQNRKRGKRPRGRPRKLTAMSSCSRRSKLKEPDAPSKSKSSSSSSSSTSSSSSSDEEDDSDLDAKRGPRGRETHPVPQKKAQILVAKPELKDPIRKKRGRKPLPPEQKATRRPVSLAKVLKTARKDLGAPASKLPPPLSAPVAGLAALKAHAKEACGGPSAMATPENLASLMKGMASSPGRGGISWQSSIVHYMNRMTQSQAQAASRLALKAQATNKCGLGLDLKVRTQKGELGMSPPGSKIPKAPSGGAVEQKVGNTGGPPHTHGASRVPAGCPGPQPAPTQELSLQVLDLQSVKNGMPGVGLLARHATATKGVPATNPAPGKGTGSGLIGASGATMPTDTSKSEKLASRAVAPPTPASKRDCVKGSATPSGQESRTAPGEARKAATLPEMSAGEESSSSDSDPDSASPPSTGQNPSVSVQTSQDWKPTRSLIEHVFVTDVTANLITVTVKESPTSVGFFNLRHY
# B1: GST-USP27X (enzyme, human, UniProt A6NNY8 1-438, looked up)
# chain: MCKDYVYDKDIEQIAKEEQGEALKLQASTSTEVSHQQCSVPGLGEKFPTWETTKPELELLGHNPRRRRITSSFTIGLRGLINLGNTCFMNCIVQALTHTPILRDFFLSDRHRCEMPSPELCLVCEMSSLFRELYSGNPSPHVPYKLLHLVWIHARHLAGYRQQDAHEFLIAALDVLHRHCKGDDVGKAANNPNHCNCIIDQIFTGGLQSDVTCQACHGVSTTIDPCWDISLDLPGSCTSFWPMSPGRESSVNGESHIPGITTLTDCLRRFTRPEHLGSSAKIKCGSCQSYQESTKQLTMNKLPVVACFHFKRFEHSAKQRRKITTYISFPLELDMTPFMASSKESRMNGQLQLPTNSGNNENKYSLFAVVNHQGTLESGHYTSFIRHHKDQWFKCDDAVITKASIKDVLDSEGYLLFYHKQVLEHESEKVKEMNTQAY
# notes: ubiquitin-specific peptidase 27X (USP27X), human cDNA cloned into pGEX-1λT (plasmids section) or pGEX-4T-1 (pull-down section); also called GST-USP27X-WT; Recombinant GST-USP27X; source: E. coli BL21, purified (GST beads)
# How the values were obtained:
# CBX2 = CBX2 (UniProt Q14781); experiment: co-IP with anti-Myc, anti-HA immunoblot; details: reference: HA-USP27X wild type; sites S135
# His-Myc-CBX2 = target: T1, His-Myc-CBX2; experiment: pull-down; GST-USP27X bound to glutathione-Sepharose 4B beads incubated with His-Myc-CBX2 for 2 h at 4 °C; retained proteins immunoblotted; details: both partners purified
binding against the reference (CBX2),binding result (His-Myc-CBX2),Molecule
weaker,,USP27X (from UniProt A6NNY8) HA-USP27X S135A
,binds,B1
